{"source": "patent US20220098591", "about": "“STEM-LOOP COMPOSITIONS AND METHODS FOR INHIBITING VASCULAR ENDOTHELIAL GROWTN FACTOR” (DRIVE THERAPEUTICS LLC, published 2022)", "binders": {"B1": {"name": "Aptamer 196 (ssRNA)", "RNA": "AGGCCGACCCGCGCGGAGGGGUUUCAUUAUCCCGUUUGUCGGCUU", "modifications": "G 2'-F except G22 2'-OMe; A,C,U 2'-OMe; Sp3 joins the two parts; 5' C6NH2; 3' idT"}, "B2": {"name": "Aptamer 141 (ssRNA)", "RNA": "B1 RNA", "modifications": "all G 2'-F; A,C,U 2'-OMe; Sp3 joins the two parts (position 9); 5' C6NH2; 3' idT"}, "B3": {"name": "Aptamer 198 (ssRNA)", "RNA": "B1 RNA", "modifications": "G 2'-F except G39 2'-OMe; A,C,U 2'-OMe; Sp3 joins the two parts; 5' C6NH2; 3' idT"}}, "key": {"VEGF-A165 [1]": {"molecular_target": "T1, VEGF-A165 (Homo sapiens)", "T1 chain": "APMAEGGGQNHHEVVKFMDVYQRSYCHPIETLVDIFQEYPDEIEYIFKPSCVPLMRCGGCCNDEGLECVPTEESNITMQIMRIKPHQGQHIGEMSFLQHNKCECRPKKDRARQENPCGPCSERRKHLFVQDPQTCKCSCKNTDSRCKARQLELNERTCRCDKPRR", "test": "cell_activity; KDR phosphorylation; >50% at 100 nM with VEGF-A121", "conditions": "tags: glycan-biotinylated for SPR/FRET/AlphaLISA; Acro BioSystems, R&D Systems; chain copies: 2 (inferred)", "procedure": "(§1) Briefly, HEK293 cells engineered to stably overexpress KDR were plated overnight in collagen coated 96 well plates at 50 k cells/well. Aptamers in SB1+ (40 mM HEPES, pH 7.5, 125 mM NaCl, 5 mM KCl, 1 mM MgCl₂) were heated to 90° C. for 3 minutes and allowed to cool to room temperature for a minimum of 10 minutes. […] 15 μL of VEGF-A was added to 15 μL titrated aptamer in a polypropylene plate and diluted to 300 μL with TS buffer (10 mM Tris pH 7.5; 100 mM NaCl; 5.7 mM KCl; 1 mM MgCl₂; 1 mM CaCl₂). The aptamer/VEGF-A mixture was incubated at 37° C. for 30 minutes, after which 100 μL was added to the cells for 5 minutes at 37° C. in 5% CO₂. Treatments were aspirated from cells, and cells were lysed with 100 μL cold lysis buffer [20 mM Tris-HCl, pH 7.5, 150 mM NaCl, 1 mM EDTA, 1% Triton X-100, 0.5 mM sodium orthovanadate (freshly prepared), 1 mM PMSF (freshly prepared), lx protease inhibitor cocktail (freshly prepared)] on ice for 10 minutes. Plates were centrifuged at 4000×g for 10 minutes before transferring the cell lysis to the AlphaLISA® assay plate.\n(§2) To perform the AlphaLISA® assay, 10 μL of cell lysis was transferred to a white low volume 384 well Optiplate (Perkin Elmer). […] 10 μL of this reagent mixture was added to the assay plate that contained 10 μL of cell lysate. The assay plate was sealed and incubated in the dark for approximately 2 hours, then was read on a Biotek CYTATION™ 5 plate reader using the Alpha 384 well optical cube. Percent inhibition was calculated by subtracting TS buffer background from each value and normalizing to VEGF-A only controls. The values were fit by using a four-parameter non-linear fit in GraphPad Prism Version 7.0."}, "VEGF-A121 [2]": {"molecular_target": "T2, VEGF-A121 (Homo sapiens, UniProt P15692 SEQ:1-121)", "test": "cell_activity; KDR phosphorylation in HEK293-KDR", "conditions": "tags: glycan biotinylated in TR-FRET; Biolegend in the cell assay; chain copies: 2", "procedure": "as §1, §2"}, "VEGF-A121 [3]": {"molecular_target": "T2, VEGF-A121", "test": "competition; TR-FRET; stem S2 mispaired", "conditions": "tags: glycan-biotinylated for SPR/FRET/AlphaLISA; Acro BioSystems, Biolegend; chain copies: 2 (stated)", "procedure": "(§3) Briefly, for competition TR-FRET, 2-fold dilutions of thermally equilibrated aptamers were made in TR-FRET Buffer (50 mM MOPS, pH 7.4, 125 mM NaCl, 5 mM KCl, 50 μM CHAPS, 0.1 mg/mL BSA, 1 mM CaCl₂, and 1 mM MgCl₂). 5 μL of aptamer or control solution was added to a 15 μL mix of glycan biotinylated […] (5 nM final), ALEXA FLUOR® 647-labeled Aptamer (30 nM final), and Streptavidin-Eu (Perkin Elmer; 2.5 nM final) in a black wall low volume 384 well plate (Greiner). For control, 5 μl of 1000-fold excess of unlabeled parent aptamer or 5 μl TR-FRET buffer alone was added to the mix of ALEXA FLUOR® 647-labeled aptamer, biotin-VEGF-A, and Streptavidin-Eu. The plate was covered with a plate seal and subsequently incubated in the dark for 1 hour at room temperature. The plate was read on a Biotek CYTATION™ 5 plate reader. Samples were excited at 330 nm and fluorescent values were collected at 665 nm. Data analysis was performed by subtracting the background value and plotting as percent inhibition, normalized to baseline in the absence of competitor. The values were fit by [Inhibitor] vs. response-Variable slope (four parameters) using GraphPad Prism Version 7.0 and then normalized to aptamer control to obtain an IC₅₀ relative to parent aptamer. Data is presented as log values of relative IC₅₀. […]"}, "VEGF-A121 [4]": {"molecular_target": "T2, VEGF-A121", "test": "competition; TR-FRET; stem S1 mispaired", "conditions": "tags: glycan-biotinylated for SPR/FRET/AlphaLISA; Acro BioSystems, Biolegend; chain copies: 2 (stated)", "procedure": "as §3"}, "VEGF-A121 [5]": {"molecular_target": "T2, VEGF-A121", "test": "competition; TR-FRET", "conditions": "tags: glycan-biotinylated for SPR/FRET/AlphaLISA; Acro BioSystems, Biolegend; chain copies: 2 (stated)", "procedure": "Briefly, for competition TR-FRET, 2-fold dilutions of thermally equilibrated aptamers were made in TR-FRET Buffer (50 mM MOPS, pH 7.4, 125 mM NaCl, 5 mM KCl, 50 μM CHAPS, 0.1 mg/mL BSA, 1 mM CaCl₂, and 1 mM MgCl₂). 5 μL of aptamer or control solution was added to a 15 μL mix of glycan biotinylated […] (5 nM final), ALEXA FLUOR® 647-labeled Aptamer (30 nM final), and Streptavidin-Eu (Perkin Elmer; 2.5 nM final) in a black wall low volume 384 well plate (Greiner). For control, 5 μl of 1000-fold excess of unlabeled parent aptamer or 5 μl TR-FRET buffer alone was added to the mix of ALEXA FLUOR® 647-labeled aptamer, biotin-VEGF-A, and Streptavidin-Eu. The plate was covered with a plate seal and subsequently incubated in the dark for 1 hour at room temperature. The plate was read on a Biotek CYTATION™ 5 plate reader. Samples were excited at 330 nm and fluorescent values were collected at 665 nm. Data analysis was performed by subtracting the background value and plotting as percent inhibition, normalized to baseline in the absence of competitor. The values were fit by [Inhibitor] vs. response-Variable slope (four parameters) using GraphPad Prism Version 7.0 and then normalized to aptamer control to obtain an IC₅₀ relative to parent aptamer. Data is presented as log values of relative IC₅₀.\nStarting at position 6, 2′F-G residues were systematically replaced, one at a time, and the activity of the resultant molecule was assessed by competition TR-FRET, as described in Example 7, against the parent molecule, Aptamer 141."}, "VEGF-A121 [6]": {"molecular_target": "T2, VEGF-A121", "test": "direct TR-FRET, RT", "conditions": "tags: glycan-biotinylated for SPR/FRET/AlphaLISA; Acro BioSystems, Biolegend; chain copies: 2 (stated); stem-loop", "procedure": "Briefly, ALEXA FLUOR® 647-labeled aptamers were heated to 90° C. for 3 minutes and cooled to room temperature. Titrations of ALEXA FLUOR® 647-labeled aptamers and ALEXA FLUOR® 647-labeled anti-VEGF-A antibody were made in TR-FRET buffer (50 mM MOPS, pH 7.4, 125 mM NaCl, 5 mM KCl, 50 μM CHAPS, 0.1 mg/mL BSA, 1 mM CaCl₂, and 1 mM MgCl₂) in a polypropylene plate. 5 μL of aptamers or antibody were transferred to the black wall low volume 384 well assay plate (Greiner), followed by 5 μL glycan biotinylated VEGF-A₁₂₁ (2.5 nM final), and 5 μL Streptavidin-Eu (Perkin Elmer; 2.5 nM final). The plate was covered with a plate seal and subsequently incubated in the dark for 2 hours at room temperature. The plate was read on a Biotek CYTATION™ 5 plate reader. Samples were excited at 330 nm and fluorescent values were collected at 665 nm.\nNo protein background fluorescent values were averaged and subtracted from test compounds, with data normalized as a fold change to highest concentrations of aptamers and antibody. These values were fit using a four-parameter non-linear fit in GraphPad Prism Version 7.0."}, "VEGF-A165 [7]": {"molecular_target": "T1, VEGF-A165", "test": "direct TR-FRET, RT; limited by VEGF-A concentration", "conditions": "tags: glycan-biotinylated for SPR/FRET/AlphaLISA; Acro BioSystems, R&D Systems; chain copies: 2 (inferred); stem-loop"}, "VEGF-A121 [8]": {"molecular_target": "T2, VEGF-A121", "test": "competition; AlphaLISA, blocks KDR binding", "conditions": "tags: glycan-biotinylated for SPR/FRET/AlphaLISA; Acro BioSystems, Biolegend; chain copies: 2 (stated); stem-loop"}, "VEGF-A165 [9]": {"molecular_target": "T1, VEGF-A165", "test": "competition; AlphaLISA, blocks KDR binding; limited by VEGF-A concentration", "conditions": "tags: glycan-biotinylated for SPR/FRET/AlphaLISA; Acro BioSystems, R&D Systems; chain copies: 2 (inferred); stem-loop"}, "VEGF-A121 [10]": {"molecular_target": "T2, VEGF-A121", "test": "competition; TR-FRET; stem S3 mispaired", "conditions": "tags: glycan-biotinylated for SPR/FRET/AlphaLISA; Acro BioSystems, Biolegend; chain copies: 2 (stated)", "procedure": "as §3"}}, "data": [{"binder": "UAGGCCGCCUCCGCGCGGAGGGGUUUCAUUUAUCCCGUUUGGCGGCUUU (ssRNA, all G 2'-F; A,C,U 2'-OMe; 5' C6NH2; 3' idT)", "values": [{"measurement": "activity", "setting": "VEGF-A165 [1]", "result": "> 50", "unit": "% inhibition at 10 nM"}]}, {"binder": "UAGGCCGCCUCCGCGCGGAGGGGUUUCAUUUAUCCCGUUUGGCGGCUUU (ssRNA, 2'-F G; 2'-OMe A,C,U; 5' C6NH2; 3' idT)", "values": [{"measurement": "activity", "setting": "VEGF-A121 [2]", "result": "> 50", "unit": "% inhibition at 100 nM"}]}, {"binder": "AGGCCGCCUUUGCGCUUAGGGGUUUCAUUAUCCCGUUUGGCGGCUU (ssRNA, all G 2'-F; A,C,U 2'-OMe; 5' C6NH2; 3' idT)", "note": "[Aptamer 182]", "values": [{"measurement": "binding signal", "setting": "VEGF-A121 [3]", "result": "> 100 fold worse IC50 vs Aptamer 26"}]}, {"binder": "AGGCCGCCUCCGCGCCCAGGGGUUUCAUUAUCCCGUUUGGCGGCUU (ssRNA, all G 2'-F; A,C,U 2'-OMe; 5' C6NH2; 3' idT)", "note": "[Aptamer 183]", "values": [{"measurement": "binding signal", "setting": "VEGF-A121 [3]", "result": "> 100 fold worse IC50 vs Aptamer 26"}]}, {"binder": "AGGCCGCAUCCGCGCGGAGGGGUUUCAUUAUCCCGUUUAACCGCUU (ssRNA, all G 2'-F; A,C,U 2'-OMe; 5' C6NH2; 3' idT)", "note": "[Aptamer 180]", "values": [{"measurement": "binding signal", "setting": "VEGF-A121 [4]", "result": "> 100 fold worse IC50 vs Aptamer 26"}]}, {"binder": "AGGCCGCAUCCGCGCGGAGGGGUUUCAUUAUCCCGUUUAACCGAUU (ssRNA, all G 2'-F; A,C,U 2'-OMe; 5' C6NH2; 3' idT)", "note": "[Aptamer 181]", "values": [{"measurement": "binding signal", "setting": "VEGF-A121 [4]", "result": "> 100 fold worse IC50 vs Aptamer 26"}]}, {"binder": "B1", "values": [{"measurement": "binding signal", "setting": "VEGF-A121 [5]", "result": "~2 fold better IC50 vs Aptamer 141"}]}, {"binder": "B2", "values": [{"measurement": "Kd", "setting": "VEGF-A121 [6]", "result": 4.3, "unit": "nM"}, {"measurement": "Kd", "setting": "VEGF-A165 [7]", "result": 1.2, "unit": "nM"}, {"measurement": "IC50", "setting": "VEGF-A121 [8]", "result": 3.2, "unit": "nM"}, {"measurement": "IC50", "setting": "VEGF-A165 [9]", "result": 0.81, "unit": "nM"}]}, {"binder": "B3", "values": [{"measurement": "binding signal", "setting": "VEGF-A121 [5]", "result": "~2 fold better IC50 vs Aptamer 141"}]}, {"binder": "AGGCCGCCUCCGCGCGGAGCCGUUUCAUUAUCCCGUUUGGCGGCUU (ssRNA, all G 2'-F; A,C,U 2'-OMe; 5' C6NH2; 3' idT)", "note": "[Aptamer 184]", "values": [{"measurement": "binding signal", "setting": "VEGF-A121 [10]", "result": "> 100 fold worse IC50 vs Aptamer 26"}]}]}
